Measured values as given in article doi:10.64898/2025.12.30.697104.
Where two headings read alike, the source gives them in different places.

Columns and labels:
[1] = biological target: Trichoplusia ni (Tni) beta-tubulin (Trichoplusia ni (endogenous in Tni cells)); assay: cryo-EM structure
[2] = biological target: Trichoplusia ni (Tni) beta-tubulin (Trichoplusia ni (endogenous in Tni cells)); assay: cryo-EM structure; remark: listed apart in the source

Trichoplusia ni (Tni) beta-tubulin (natural protein)
stoichiometry N [1]: 2
stoichiometry N [2]: 2
